According to patent US20220251215A1 (Regeneron, published 2022):

B1: mAb28075P (antibody, human IgG4 S228P, kappa, V domains shown)
VH: EVQLVESGGGVVQPGGSLRLSCAASGFTFDDYAMHWVRQAPGKGLEWVSLISGDGDNTYYADSVKGRFTISRDNNKNSLYLQMNSLRTEDTAFYYCAKELIFGKVLHDFYYYVMDVWGQGTTVTVSS
VL: not shown
B2: mAb29814P (antibody, human IgG4 S228P, kappa, V domains shown)
VH: QVQLVESGGGVVQPGRSLRLSCVASGFTFSSYGMHWVRQAPGKGLEWVAVIWYVGSNKYYGDSVKGRFTISRDNSKNTLYLQMNSLRAEDTAVYYCARDLIADRPGYYYNGMDVWGQGTTVTVSS
VL: EIVMTQSPVTLFVSPGERATLSCRASQSVNTNLAWYQQQPGQAPRLLIHGASTRPTGVPARFSGSGSGTEFTLIISSLQSEDFAVYYCQQYNNWPPWTFGQGTKVEIKR
B3: mAb28113P (antibody, human IgG4 S228P, kappa, V domains shown)
VH: EVQLVESGGGVVQPGGSLRLSCAASGFTFDDYAMHWVRQAPGKGLEWVSLISGGGGGTYYSDSVKGRFTISRDTSKDSLYLQMNSLRTEDTALYYCAKDMVFGVVTPYYYFALDVWGQGTTVTVSS
VL: not shown
B4: mAb28035P (antibody, human IgG4 S228P, kappa, V domains shown)
VH: QVQLVQSGAEVMKPGASVKVSCKVSGYTLSDLSMHWVRQAPGKGLEWMGGFDFEHGKTIYAQKFQGRVTMTEDTSTDTTYMELSSLRSEDTAVYYCAKVPNWGFFDYWGQGTLVTVSS
VL: not shown
B5: mAb24956N (antibody, human IgG4 S228P, kappa, V domains shown)
VH: EVQLVESGGGVVQPGGSLRLSCAASGFTFDDYAMYWVRQAPGKGLEWVSLISGDGGSMYYADSVKGRFTISRDNSKNSLYLQMNSLRTEDTALYYCAKDMIFYAFWSGYGSSDYYYYVMDVWGQGTTVTVYS
VL: not shown
B6: mAb28037P2 (antibody, human IgG4 S228P, kappa, V domains shown)
VH: QVQLQESGPGLVKPSETLSLTCTVSGDSISVYYWTWIRQPPGKGLEWIGYVHYTGYTNYNPSLKSRVTMSVDTAKKQISLKVRSVTAADTAVYYCARTIPAAAHYYHGTDVWGPGTTVTVSS
VL: DIQMTQSPSSLSASVGDRVTITCQANQDIRKYLNWYQQKSGKAPTLLIYEASNLETGAPSTFSGSGSGTEFTFTISSLRPEDIATYYCQQYESLPLTFGGGTKVEIKR
B7: mAb24958N (antibody, human IgG4 S228P, kappa, V domains shown)
VH: QVQLQESGPGLVKPSQTLSLTCTVSGGSIISDGYYWSWIRQHPGKGLEWIGYVDYSGNTYYNPSLKSRIIMSVDTSKNQFSLKLTSVTAADTAVYFCVREGPLRDAFEIWGQGTMVTVSS
VL: DIQMTQSPSSLSASVGDRVTITCRTSQSISRYLNWYQQKPGKAPKLLIFAASSLQSGVPSRFSGSGSGADFTLTISSLQPEDFATYYCQQSYSTPPITFGQGTRLEIKR
B8: mAb28105P (antibody, human IgG4 S228P, kappa, V domains shown)
VH: EVQLVESGGGVVQPGGSLRLSCEASGFIFDDYAMHWVRQAPGKGLEWVSLISGDGDIIYYADSVKGRFTISRDNSKNSLYLQMNSLIIEDTALYYCAKDWVFGVVMTHYWYFGLDVWGQGTTVTVSS
VL: DIQMTQSPSSLSASEGDRVTITCRASQSISTYLNWYQQKPGKAPKLLIYGASSLQSGVPSRFSGSGSGTDFTLTISSLQPEDFATYYCQQSYSTPPITFGQGTKVEIKR
B9: mAbm24955N (antibody, V domains shown)
VH: EVQLVESGGGVVQPGGSLRLSCVASGFTFDDYAMYWVRQVPGKDLEWVSLISGDGDITYYVDSVKGRFTVSRDNNKNSLYLQMKSLRVEDTALYYCAKDMIYYASWSGYGSSDYYYYVMDVWGQGTTVTVSS
VL: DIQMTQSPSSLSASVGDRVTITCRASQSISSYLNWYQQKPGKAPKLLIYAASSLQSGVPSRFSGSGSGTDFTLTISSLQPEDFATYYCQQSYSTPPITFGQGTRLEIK
notes: the prefix mAbm is not explained (perhaps a mouse constant region)
B10: mAb28042P (antibody, human IgG4 S228P, kappa, V domains shown)
VH: QLQLQESDPGLVKPSETLSLTCTVSGDSIRNSNYYWGWIRQPPGKGLEWIGSIYFSGRTYFNPSLKSRVTIPVDMSKNQFSLMLNSVTATDTAVYYCARHGGITAAGGFFDYWGQGTLVTVSS
VL: DIQMTQSPSSLSASVGDRVTITCQASQDISNYLNWYQQKPGKAPNVLIYDASNLETGVPSRFSGSGSGTDFTFTISSLQPEDFATYYCQQNDNLPLTFGGGTKVEIKR
B11: mAb29822P2 (antibody, human IgG4 S228P, kappa, V domains shown)
VH: EVQLVESGGGVVQPGGSLRLSCAVSGFTFDDYAMHWVRQAPGKGLEWVSLISGDGGSTHYADSVKGRFTISRDNSKNSLYLQMNSLRTGDTALYYCAKDMIFAVVITDYHYYGMDVWGQGTTVTVSS
VL: not shown
B12: mAb24959N (antibody, human IgG4 S228P, kappa, V domains shown)
VH: QLQLLESGPGLVKPSETLSLICTVSGGSIRGSSYYWGWIRQPPEKGLEWIGSIYSSGSTYYNPSLKSRVTISADTSKNQFSLKLSSVTAADTAVYYCARHGGITAVQLEFDPWGQGTLVTVSS
VL: DIQMTQSPSSLSASVGDRVTITCQASQDISNYLKWYQQKPGKAPKILIHDASNLEIGVPSRFSGSGAGTDFIFTISSLQPEDIGTYYCQQYDNLPITFGQGTRLEIKR

Experiments:
[1] = biological target: T1, HLA-A2 on T2 cells pulsed with NY-ESO-1:157-165, wt peptide (C165) (human); assay: flow cytometry, peptide-pulsed T2 cells
T1 construct: also called T2 Pulsed NY-ESO-1_157-165

[2] = biological target: T1, HLA-A2 on T2 cells pulsed with …; assay: flow cytometry, 10 ug/ml, pulsed T2 cells
[3] = biological target: HLA-A2 on T2 cells pulsed with BCL9L: 1351-1359 peptide (human); assay: flow cytometry, 10 ug/ml, pulsed T2 cells
[4] = biological target: HLA-A2 on T2 cells pulsed with GRID1: 7-15 peptide (human); assay: flow cytometry, 10 ug/ml, pulsed T2 cells
[5] = biological target: HLA-A2 on T2 cells pulsed with EARS2: 306-314 peptide (human); assay: flow cytometry, 10 ug/ml, pulsed T2 cells
[6] = biological target: HLA-A2 on T2 cells pulsed with ITCH (807-815) peptide (human); assay: flow cytometry, 10 ug/ml, pulsed T2 cells
[7] = biological target: HLA-A2 on T2 cells pulsed with MAGEH1: 90-98 peptide (human); assay: flow cytometry, 10 ug/ml, pulsed T2 cells
[8] = biological target: HLA-A2 on T2 cells pulsed with FBXL22: 4-12 peptide (human); assay: flow cytometry, 10 ug/ml, pulsed T2 cells
[9] = biological target: HLA-A2 on T2 cells pulsed with URB1: 1853-1861 peptide (human); assay: flow cytometry, 10 ug/ml, pulsed T2 cells
[10] = biological target: T2, monomeric HLA-A2:NY-ESO-1(156-165) (V at position 165) peptide complex, 2906; assay: SPR, 25 C, antibody captured, monomeric complex injected;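 further: antibody held on sensor chip via immobilized anti-human or anti-mouse Fc antibody, rate constants derived by fitting sensorgrams to a 1:1 binding model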
T2 construct: also called soluble HLA-A2:NY-ESO-1 peptide complex

[11] = biological target: T2, monomeric HLA-A2:NY-ESO-1(156-165) (V …); assay: SPR, 37 C, antibody captured, monomeric complex injected
[12] = biological target: HLA-A2 on T2 cells pulsed with ZDHHC1 (376-384) peptide (human); assay: flow cytometry, 10 ug/ml, pulsed T2 cells

| Binder | EC50 [1] [nM] | ratio of MFI, pulsed to unpulsed [2] [ratio] | ratio of MFI, pulsed to unpulsed [3] [ratio] | ratio of MFI, pulsed to unpulsed [4] [ratio] | ratio of MFI, pulsed to unpulsed [5] [ratio] | ratio of MFI, pulsed to unpulsed [6] [ratio] | ratio of MFI, pulsed to unpulsed [7] [ratio] | ratio of MFI, pulsed to unpulsed [8] [ratio] | ratio of MFI, pulsed to unpulsed [9] [ratio] | Kd [10] [nM] | t½ [10] [min] | Kd [11] [nM] | t½ [11] [min] | ratio of MFI, pulsed to unpulsed [12] [ratio] | koff [10] [s⁻¹] | kon [10] [M⁻¹ s⁻¹] | koff [11] [s⁻¹] | kon [11] [M⁻¹ s⁻¹] |
| --- | --- | --- | --- | --- | --- | --- | --- | --- | --- | --- | --- | --- | --- | --- | --- | --- | --- | --- |
| B1 | 0.38 | 58.8 | 1.5 | 1.4 | 0.5 | 1 | 0.5 | 0.5 | 0.5 | 0.388 | 32.8 | 1 | 9.1 | – | – | – | – | – |
| B2 | 1.1 | 124 | 150 | 1.6 | 0.6 | 0.9 | 0.4 | 0.5 | 7.9 | – | – | – | – | 0.6 | – | – | – | – |
| B3 | 0.6 | 115 | 1 | 0.9 | 0.5 | 0.9 | – | 0.5 | 0.6 | 0.639 | 35.5 | 1.94 | 7.9 | – | – | – | – | – |
| B4 | 2.7 | 131 | 170 | 1.4 | 0.6 | 1 | 0.4 | 0.5 | 0.5 | 0.342 | 75.9 | 0.378 | 45.7 | 0.9 | 0.000152 | 445000 | 0.000253 | 669000 |
| B5 | 0.47 | 125 | – | 1 | 0.6 | 0.9 | – | 0.5 | 0.5 | 0.387 | 31.6 | – | – | – | – | – | – | – |
| B6 | 0.78 | 137 | 52.3 | 0.7 | 0.6 | 1.3 | 0.4 | 0.5 | 0.6 | 0.692 | 37.7 | 2.76 | 6.3 | 0.5 | 0.000307 | 443000 | 0.00183 | 664000 |
| B7 | 19 | 98.6 | – | 0.7 | 0.6 | 1 | 0.5 | 0.5 | 0.6 | 2.77 | 65.4 | – | – | – | – | – | – | – |
| B8 | 1.8 | 126 | – | 0.7 | 0.6 | 1 | 0.5 | 0.5 | 0.6 | 0.386 | 62.8 | 0.586 | 21.3 | 0.5 | – | – | – | – |
| B9 | – | – | – | – | – | – | – | – | – | 2.27 | 9 | – | – | – | – | – | – | – |
| B10 | 1.6 | 134 | 46.5 | 17.4 | 0.6 | 0.7 | 0.4 | 0.5 | 0.5 | 0.55 | 58 | 2.09 | 9.9 | 0.5 | 0.000199 | 362000 | 0.00117 | 561000 |
| B11 | 5.4 | 36.7 | 0.8 | 0.7 | 0.5 | 0.8 | – | – | – | – | – | – | – | – | – | – | – | – |
| B12 | 1.1 | 131 | 80.7 | 3.2 | 0.6 | 0.9 | 0.4 | 0.5 | 0.6 | 1.23 | 22.3 | – | – | 0.4 | 0.000517 | 421000 | – | – |
